In patent US20080286819A1:

Experiments:
[1] = molecular target: Human soluble FcγRIIB (human) (UniProt P31994); assay: SPR, soluble human Fc-receptor
[2] = molecular target: Human soluble FcγRIIIA^158F (human) (UniProt P08637); assay: SPR, soluble human Fc-receptor
[3] = molecular target: Human soluble FcγRIIA^131H (human) (UniProt P12318); assay: SPR, soluble human Fc-receptor
[4] = molecular target: Human soluble FcγRIIIA^158F (human) (UniProt P08637); assay: ratio of SPR affinities; reference human FcγRIIB
[5] = molecular target: Human soluble FcγRIIA^131H (human) (UniProt P12318); assay: ratio of SPR affinities; reference human FcγRIIB
[6] = molecular target: Mouse soluble FcγRIV (mouse); assay: SPR (Biacore), antibody immobilized, soluble FcγR injected
[7] = molecular target: Mouse soluble FcγRIII (mouse) (UniProt P08508); assay: as above
Chain of UniProt P08508 (P08508 31-215): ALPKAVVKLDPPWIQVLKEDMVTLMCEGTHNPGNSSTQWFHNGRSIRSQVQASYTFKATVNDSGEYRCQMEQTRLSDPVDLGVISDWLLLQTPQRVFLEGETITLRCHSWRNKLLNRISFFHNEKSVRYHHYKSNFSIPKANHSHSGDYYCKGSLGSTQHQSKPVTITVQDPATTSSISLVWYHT

[8] = molecular target: Mouse soluble FcγRI (mouse) (UniProt P26151); assay: as above
Chain of UniProt P26151 (P26151 25-297): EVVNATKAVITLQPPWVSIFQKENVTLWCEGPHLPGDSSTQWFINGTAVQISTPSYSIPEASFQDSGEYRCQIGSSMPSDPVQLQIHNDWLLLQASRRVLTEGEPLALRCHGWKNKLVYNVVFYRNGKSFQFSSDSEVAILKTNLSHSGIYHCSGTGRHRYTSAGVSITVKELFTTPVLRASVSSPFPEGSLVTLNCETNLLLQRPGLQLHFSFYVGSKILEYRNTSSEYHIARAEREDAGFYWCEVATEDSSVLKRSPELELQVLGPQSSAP

[9] = molecular target: Human soluble FcγRIIIA^158F (human) (UniProt P08637); assay: as above
[10] = molecular target: Mouse soluble FcγRIIB (mouse) (UniProt P08101); assay: as above
Chain of UniProt P08101 (P08101 30-210): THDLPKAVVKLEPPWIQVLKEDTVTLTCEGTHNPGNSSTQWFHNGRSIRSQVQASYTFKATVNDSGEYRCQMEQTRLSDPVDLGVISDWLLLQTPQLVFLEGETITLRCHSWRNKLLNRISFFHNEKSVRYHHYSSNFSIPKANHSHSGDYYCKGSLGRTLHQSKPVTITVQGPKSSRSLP

[11] = molecular target: Human soluble FcγRIIA^131R (human) (UniProt P12318); assay: as above
[12] = molecular target: Human soluble FcγRIIA^131H (human) (UniProt P12318); assay: as above
[13] = molecular target: Mouse soluble FcγRIII (mouse) (UniProt P08508); assay: SPR (Biacore), antibody immobilized; + = detectable but very low binding
[14] = molecular target: Human soluble FcγRIIIA^158F (human) (UniProt P08637); assay: as above
[15] = molecular target: Mouse soluble FcγRIIB (mouse) (UniProt P08101); assay: as above
[16] = molecular target: Mouse soluble FcγRIV (mouse); assay: as above
[17] = molecular target: Human soluble FcγRIIB (human) (UniProt P31994); assay: SPR (Biacore), antibody immobilized, soluble FcγR injected
[18] = molecular target: Human soluble FcγRIIA^131R (human) (UniProt P12318); assay: SPR (Biacore), antibody immobilized; + = detectable but very low binding
[19] = molecular target: Human soluble FcγRIIA^131H (human) (UniProt P12318); assay: as above
[20] = molecular target: Human soluble FcγRIIB (human) (UniProt P31994); assay: SPR; reference human FcγRIIIA and FcγRIIA
[21] = molecular target: Mouse soluble FcγRIII (mouse) (UniProt P08508); assay: ratio of SPR affinities; reference mouse FcγRIIB
[22] = molecular target: Mouse soluble FcγRIIB (mouse) (UniProt P08101); assay: SPR; reference mouse FcγRIII
[23] = molecular target: Mouse soluble FcγRIV (mouse); assay: ratio of SPR affinities; reference mouse FcγRIIB
[24] = molecular target: Mouse soluble FcγRIV (mouse); assay: SPR; reference mouse FcγRIIB

Chain of UniProt P31994 (P31994 43-217): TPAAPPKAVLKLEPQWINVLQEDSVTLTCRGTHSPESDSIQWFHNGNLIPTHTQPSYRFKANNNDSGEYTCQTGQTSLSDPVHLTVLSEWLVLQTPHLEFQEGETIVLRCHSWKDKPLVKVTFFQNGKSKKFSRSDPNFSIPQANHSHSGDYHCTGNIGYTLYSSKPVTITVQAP
Chain of UniProt P08637 (P08637 17-208): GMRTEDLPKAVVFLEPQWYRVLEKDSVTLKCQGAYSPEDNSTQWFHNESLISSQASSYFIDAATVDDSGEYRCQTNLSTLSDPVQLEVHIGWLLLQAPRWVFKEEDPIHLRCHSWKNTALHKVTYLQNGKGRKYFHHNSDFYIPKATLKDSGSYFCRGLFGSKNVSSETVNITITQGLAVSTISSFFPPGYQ

| Substance | Ka [6] [M⁻¹] | Ka [7] [M⁻¹] | Ka [8] [M⁻¹] | Ka [9] [M⁻¹] | Ka [10] [M⁻¹] | Ka [11] [M⁻¹] | Ka [12] [M⁻¹] | Ka [14] [M⁻¹] | Ka [17] [M⁻¹] | further results |
| --- | --- | --- | --- | --- | --- | --- | --- | --- | --- | --- |
| FITC-IgG1-Fucose (human IgG1 Fc-switch variant of the 4-4-20 antibody lacking fucose) |  |  |  |  |  |  |  |  |  | Ka [1]: 78100 M⁻¹; Kd [1]: 12.8 µM; Ka [2]: 5.97e+06 M⁻¹; Kd [2]: 0.168 µM |
| FITC-IgG2-Fucose (human IgG2 Fc-switch variant of the 4-4-20 antibody lacking fucose) |  |  |  |  |  |  |  |  |  | Ka [1]: 25400 M⁻¹; Kd [1]: 39.4 µM; Ka [2]: 144000 M⁻¹; Kd [2]: 6.93 µM; Ka [3]: 135000 M⁻¹; Kd [3]: 7.4 µM; A/I ratio IIIA/IIB (KA for FcγRIIIA over KA for FcγRIIB) [4]: 5.67; A/I ratio IIA/IIB (KA for FcγRIIA over KA for FcγRIIB) [5]: 5.31 |
| hIgG3 (FITC-isotype switch variant) (antibody) |  |  | 1.2e+06 | 180000 | 83000 | 240000 | 120000 |  | 70000 | Ka [16]: < 10000 M⁻¹ |
| hIgG4 (FITC-isotype switch variant) (antibody) |  |  | 72000 |  |  |  |  |  | 48000 | Ka [16]: < 10000 M⁻¹; Ka [13]: < 10000 M⁻¹; Ka [15]: < 10000 M⁻¹; Ka [18]: < 10000 M⁻¹; Ka [19]: < 10000 M⁻¹; fold higher affinity than to FcγRIIIA and FcγRIIA [20]: > 4.8 fold |
| mIgG2a (FITC-isotype switch variant) (antibody) | 2.9e+07 | 680000 | 1.8e+08 |  | 420000 | 320000 | 170000 |  | 160000 |  |
| mIgG2b (FITC-isotype switch variant) (antibody) | 1.7e+07 | 640000 |  | 10000 | 2.2e+06 | 91000 | 120000 |  | 120000 | A/I (ratio of KA for the activating receptor FcγRIV to KA for the inhibitory FcγRIIB) [23]: 7; fold higher affinity than to FcγRIIB [24]: 10 fold |

Further lines, with some results ahead:

| Ka [6] [M⁻¹] | Ka [7] [M⁻¹] | Ka [8] [M⁻¹] | Ka [9] [M⁻¹] | Ka [10] [M⁻¹] | Ka [11] [M⁻¹] | Ka [12] [M⁻¹] | Ka [14] [M⁻¹] | Ka [17] [M⁻¹] | Substance | further results |
| --- | --- | --- | --- | --- | --- | --- | --- | --- | --- | --- |
| 2.2e+06 | 35000 | 3.8e+06 | 430000 | 200000 | 270000 | 380000 |  |  | hIgG1 (FITC-isotype switch variant, human Fc-switch variant of the 4-4-20 antibody) |  |
|  |  |  |  |  | 21000 | 120000 | < 10000 |  | hIgG2 (FITC-isotype switch variant, human Fc-switch variant of the 4-4-20 antibody) | Ka [13]: < 10000 M⁻¹; Ka [15]: < 10000 M⁻¹ |
|  | 310000 |  |  | 3.3e+06 | 250000 | 40000 | < 10000 | 100000 | mIgG1 (FITC-isotype switch variant) (antibody) | A/I (ratio of KA for the activating receptor FcγRIII to KA for the inhibitory FcγRIIB) [21]: 0.1; fold higher affinity than to FcγRIII [22]: 10 fold |
|  |  |  |  |  |  |  | < 10000 |  | mIgG3 (FITC-isotype switch variant) (antibody) | Ka [18]: < 10000 M⁻¹; Ka [19]: < 10000 M⁻¹ |
